Results taken from the nanobody polyreactivity screen of Harvey et al. (2022).

experiment: yeast display, Sf9 membrane polyspecificity reagent, FACS + sequencing; frameworks hold sequencing errors
Procedure, shortened: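 Nanobodies from a synthetic yeast display library (Saccharomyces cerevisiae BJ5465), induced 36–48 hours with galactose, were stained 1 hour at 4 °C with 10% biotinylated, detergent-solubilized Sf9 membrane reagent, enriched on streptavidin microbeads, then FACS-sorted. Anti-HA (expression) and streptavidin (reagent binding) fluorescence set low and high (top ~1%) gates. Polyreactivity labels come from the gate of origin. Genes were colony-PCR amplified, MiSeq 2 × 250 sequenced and filtered by CDR length.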

Sequence	polyreactivity (PSR sort gate)
QVQLVESGGGLVQAGGSLRLSCAATVLKFGKNPMGSYRQATGKERELVAVISWRGSSTYYADSVKGRFTISRVNAKNTVFLQMNSLKPEDTAVYYCTDVYVYVHYQPGYYWGQGTQVTVSS	low polyreactivity
QVQLVESGGGLVQAGGSLRLSCAAYAMGWYRQAPGKERELVAAMSSSGGSTYYADSVKGRFTISRDNAKTTVYLQMTSLKPEDTAVYYCARDPDTYFFPPTGYYTSGFDSWGQGTQVTVSS	low polyreactivity
QVQLVESGGGLVQAGGSLRLSCAAYGFIFKFYAMGWYRQAPGKERELVAAITSGGGRTYYADSVKGRFPISRDNAKNTVYLQMNSLKAQDSAGYYCAVDYLQYYYKKHYYGGQGTQVTVSS	high polyreactivity
QVQLVESGGGLVQAGGSLRLSCAAYGFTFIYYAMGRYRQAPGKERELVAAISRRGGSTYYADSVKGRFTISRDNAKNTVYLQMNSLKPEDTAVYYCAAYTLNTRYDYWGQGTQVTVSS	high polyreactivity
QVQLVESGGGLVQAGGSLRLSCAAYGFTFSRKAMGWYRPAPGKERELVAAISIRGGSTYYADSVKGRFTISRDNAKITVYLQMNSLKPEDTAVYYCAALYRPTDYDYWGQGTQVTVSS	high polyreactivity
QVQLVESGGGLVQAGGSLRLSCAAYGGIFSYNAKGWYSQAPGKEREFVASISSSGGRTYYADSVKGRFTISRDNAQNTVYLQMKSLKPEDTAVYYCAKRGQLRHYSWGQGTQVTVSS	low polyreactivity
QVQLVESGGGLVQAGGSLRLSCAAYGGTFYYYAMGWYRQAPGKEREFVAAITWTGGRTYYADSVKGRFTISRDNAKNTVYLQMNSLKPEDTAVYYCAASDRYGGRDYWGQGTQVTVSS	high polyreactivity
QVQLVESGGGLVQAGGSLRLSCAAYGITFKGNAMGWYRQAPGKERELVAAIRWRAGRTYYADSVKGRFTISRDNAKNTVYLQMNSLKPEDTAVYDCAATYSYLWPEYDYWGQGTQVTVSS	high polyreactivity
QVQLVESGGGLVQAGGSLRLSCAAYGRIFGPYASGWYIQAPGKERELVAAITLSGGGTYADSVKGRFTISRDNAKNTVYLQMNSLKPEDTAVYYCAADSYRLLNSDTGEFEYNYWGQGSQVTVSS	low polyreactivity
QVQLVESGGGLVQAGGSLRLSCAAYGRIFLPNSMGWYIQAPGKERELVAAITWSGGSTYYADSVKGRFTISRDNAKYTVFLQMTSLIPEDTAVYYGAGRGFSYRRRSQQFDYWGLGTQVTVSS	high polyreactivity
QVQLVESGGGLVQAGGSLRLSCAAYGRIFNEYAKGWYRQAPGKERELVAAITYSDDSTYYADSVKGRFTISRDNAKNTVYLQLNSLKPEDTAVYYCNADTPVWDGHAYPVDYWGQGTQVTVSS	low polyreactivity
QVQLVESGGGLVQAGGSLRLSCAAYGRIFRYYAMGWYRQAPGKERELVAGISWRGSSTYYADSVKGRFTLSRDNAKNTVYLQMNSLKPEDTAVYYCNRDQSNIPVTGVRFYYWGQGTQVTVSS	high polyreactivity
QVQLVESGGGLVQAGGSLRLSCAAYGRIFSRYAMGWYRQAPGKERELVAAISSSGTTTYYADSVNGRFTISRDTAKNTVYLQMNSLKPEDTAVYSCATSAVRHIYWGQGTQVTVSS	high polyreactivity
QVQLVESGGGLVQAGGSLRLSCAAYGRIFSSYAMGWYRQAPGKERELVAAISSSGGRTYYADSVKGRFTISRDNAKNTVYLQMNRLKPEDTAVYYFARVTTGGYEYWGQGSQVTVSS	high polyreactivity
QVQLVESGGGLVQAGGSLRLSCAAYGRILSVYAMGWYRQAPGKERELVAAISSTGGTYYADSVKGRFTISRDNAKNTVYLQMNSLKPEDTADYYCAARYSTLTKYYWGQGTQVTVSS	low polyreactivity
QVQLVESGGGLVQAGGSLRLSCAAYGRTFEINAMGWYRQATGKERELVAAISWDDGSTYYADSVKGRFTISRDNAKNTVYLQMNSLKPEDTAVYYCAAESPLHYTHRRGYEYWGQGTQVTVSS	low polyreactivity
QVQLVESGGGLVQAGGSLRLSCAAYGRTFWSYAMGWYRQAPGKERELVADISLDDGTTYYADSVKGRFTISRDNAKNTVYLHMNSLKPEDTAVYYCAAERDQGDDGYGPDYGYWGQGTQVTVSS	high polyreactivity
QVQLVESGGGLVQAGGSLRLSCAAYGRTIPIYAMGWYRQAPGKEREFVAGINWSGGSTSYADSVKGRFTISRDNAKNTVYLQMNSLKPEDTAVYYCDADKYYRYNYWGQGTQVTVSS	high polyreactivity
QVQLVESGGGLVQAGGSLRLSCAAYGRTLRGYAMGWYRQAPGKERELVAALTWSGGSTYYADSVKGRFTISRDHAKNTVYLQMNSLKPEDTAVYYCNARSYPDLYDYWGQGTQVTVSS	low polyreactivity
QVQLVESGGGLVQAGGSLRLSCAAYGRTLYYNTMGWYRQAPGKERELVASIRWDGGRTYYADSVKGRFTISRDNAKNTVYLQLNSLKPEDTAVYYCAKDGGYYYGTYAYDGCFDYWGQGTQVTVSS	low polyreactivity
QVQLVESGGGLVQAGGSLRLSCAAYGSIFAYNAMGWYRQAPGKEREFVAVITRSDDSTYADSVTGRFTISRDNAKNTVYLQMNSLKPVDTAVYYCAAQPFVIDGGYRGDYWGQGTQVTVSS	low polyreactivity
QVQLVESGGGLVQAGGSLRLSCAAYGSIFGSNAIGCYIQAPGKERELVAAISSGSTYYADTVKGRFTISRDNAKNTVYLQMNSLKPEDNAVYYCNARSLLYEFDYWGQGTQVTVSS	low polyreactivity

Sequence	polyreactivity (PSR sort gate)
QVQLVESGGGLVQAGGSLRLSCAAYGSIFRKYVMGWYRQAHGKERELVAVISSGTGTYYADSVKGRFTISRDNAKNTVYLQMNSLNPEDTAVYYCAARVGRYGYSQYYYWGHGTQVTVSS	high polyreactivity
QVQLVESGGGLVQAGGSLRLSCAAYGSIFRWYAMGWYRQAPGKERELVAAISTSGGNKYYADSVKGRFTISRDNAKNTVYLQMNSLKPEDTAVYYCNALWYRSLSYRYDYWGQGTQVTVSS	high polyreactivity
QVQLVESGGGLVQAGGSLRLSCAAYGSIFSENAMGWYRQAPGKEWELVADITDGGGSTYYADSVKGRFTISRDNAKNPVYLQMNSLKPDDTAVYYCNAQIFFFAPWYYEYDYWGQCTQVTVSS	low polyreactivity
QVQLVESGGGLVQAGGSLRLSCAAYGSIFVLNAMGWYRQAPGKERQLVAAITNVGSTYYADSVKGRFTISRDNAKNTVYLQMNSLKPEDTAVYYCNADPGEVLVGYDYWGQGTQVSVSS	low polyreactivity
QVQLVESGGGLVQAGGSLRLSCAAYGSILRSNAMGWYRQAPGKERELVAVISNDDSTYYADSVKGRFTISRDNAKNTVYLQMNSLKPEDTAVYYCNAVYYYFFRWNPIYDSWGQGTQVTVSS	low polyreactivity
QVQLVESGGGLVQAGGSLRLSCAAYGSNFTSNAMGWYRQAPGKERELVAVITIGGSTNYADSVKGRFTISRDNAKNTVYLQMNSLKPEDTAVYYCAADDDYSRILQGDQSDDYWGQGSQVTVSS	low polyreactivity
QVQLVESGGGLVQAGGSLRLSCAAYGSNYSTYTMGWYRTAAGKERQLVAAITRSGGSTYYADSVKGRFTISRDNAKKTDYLQMNSLKPEDTAVFYCAARGQAYSGDRMYYWGLGTQVTVSS	high polyreactivity
QVQLVESGGGLVQAGGSLRLSCAAYGSTFIAYAMGWYRQAPGKERELVAAITRGGSTNYADSVKGRFTISRDNAKNTVYLQMNRLKPEDTAVYYCAADRSWGYWGRSRYDYWGQGTQVTVSS	high polyreactivity
QVQLVESGGGLVQAGGSLRLSCAAYGSTFKRNAMGCYRQAPGKEREFVAAITWSGGSTYYADSVKGRFTISRDNAKNTVYLQMNSLKPEDTAVYYCNADRFSSRHSYDYWGQGTQVTVSS	low polyreactivity
QVQLVESGGGLVQAGGSLRLSCAAYGSTFPSYAMGSNRQAPGKERELVAAISWTGGTTYFADSVKGRFTISRDNAKNTVYLQMNSLKPEDTAVYYCNAKDGGGSQDQAQKRPIIRFDYWGQGSQVTVSS	high polyreactivity
QVQLVESGGGLVQAGGSLRLSCAAYGSTFQRYAMGWYRQAPGKERELVAAITLSGGNTYYADSVKGRFTISRDNAKNNVYLQMNSLKPEDTAVYYCAARRYRGYDYWGQGTQVTVSS	high polyreactivity
QVQLVESGGGLVQAGGSLRLSCAAYGSTFTSYAMGWYRQAPGKERELVAAISSSGTRTYYADSVKGRFTISRDNAKNTVYLQMNSLKPEDTAVYYCAKASPYSKLYYWGQGTQGTVSS	high polyreactivity
QVQLVESGGGLVQAGGSLRLSCAAYGSTFWANAMGWYRQAPGKERELVAAIRGTGGSTYADSVKGRFTISRDNAKNTVYLQMNSLKPEDTAVYYCNAKGRGWTAQYDYWGQGTQVTVSS	low polyreactivity
QVQLVESGGGLVQAGGSLRLSCAAYGSTLDGNAMGWYRQAPGKERELVAGLDTGGSTYYADSVKGRFTISRDNAKYTVYLQLIRLKPEDTAVYDCAATDREDYDYWGQGTQVTVSS	low polyreactivity
QVQLVESGGGLVQAGGSLRLSCAAYGSTLSPYTMGWYRQAPGKERELVAAITQSGGSTYYADSVKGRFTISRDKAKYTVYLQMNSLKPEDTAVYYCNRDYNADYDWGQGTQVTVSS	high polyreactivity
QVQLVESGGGLVQAGGSLRLSCAAYGYIFLRNAMGWYRQAPGKERELVAAIRRTGGSTYYADSVKGRFTISRDNAKNTVYLQMNSLKPEDTAVYYCAKRSYTGYEYWGQGTQVTVSS	low polyreactivity
QVQLVESGGGLVQAGGSLRLSCAAYRFIFATNTMGCYRQAPGKETELVAASSTYYADSVNGRFTISRDNAKNTVYLQMNSLKPEDNAVYYCNADRDSYIGFVDWAGEYWGQGTQVTVSS	low polyreactivity
QVQLVESGGGLVQAGGSLRLSCAAYVFIFYVYAMGWYRQAHGKERELVAAISGGGDSTYYADSVKGRFTISRDNAKNTVYLQMNSLKPEDTAVYYCATRRYPEVVNGEYGYWGQGTQVTVSS	low polyreactivity
QVQLVESGGGLVQAGGSLRLSCACSGHTFSSYAIGWYRQAPGKERELVAAISVSATRTYYADSVKGRFTISRDNEKNTVYLQMNSLKPEDTAVYYFAARPVQFTYGYWGLGTQVTVSS	high polyreactivity
QVQLVESGGGLVQAGGSLRLSCADSGFIFVPYAMGWYRQAPGKERELVATITGRGDSTYYADSVKWRFTISRDNALNTVYLQMNSLKTEDTSLFYCAVDPIRLWAYDYWGQGTQVTVSS	low polyreactivity
QVQLVESGGGLVQAGGSLRLSCADSGFTFRYNAIGSYRQAPGKERELVARISSTGGGTSYADSVKGRFTISRDNAKNTVYLQMNSLKPEDTAVYYCNKRSWGYGRGLPDSDYWGQGTQVTVSS	low polyreactivity
